Assay results as given in paper PMC3731569 (Cell Research, 2013).

Biological target: Human DPP4 extracellular domain (residues 39-766) (human, UniProt P27487 39-766)
Test: […], ~10 mg/ml in HBS

Chain of Human DPP4 extracellular domain (residues 39-766) (P27487 39-766): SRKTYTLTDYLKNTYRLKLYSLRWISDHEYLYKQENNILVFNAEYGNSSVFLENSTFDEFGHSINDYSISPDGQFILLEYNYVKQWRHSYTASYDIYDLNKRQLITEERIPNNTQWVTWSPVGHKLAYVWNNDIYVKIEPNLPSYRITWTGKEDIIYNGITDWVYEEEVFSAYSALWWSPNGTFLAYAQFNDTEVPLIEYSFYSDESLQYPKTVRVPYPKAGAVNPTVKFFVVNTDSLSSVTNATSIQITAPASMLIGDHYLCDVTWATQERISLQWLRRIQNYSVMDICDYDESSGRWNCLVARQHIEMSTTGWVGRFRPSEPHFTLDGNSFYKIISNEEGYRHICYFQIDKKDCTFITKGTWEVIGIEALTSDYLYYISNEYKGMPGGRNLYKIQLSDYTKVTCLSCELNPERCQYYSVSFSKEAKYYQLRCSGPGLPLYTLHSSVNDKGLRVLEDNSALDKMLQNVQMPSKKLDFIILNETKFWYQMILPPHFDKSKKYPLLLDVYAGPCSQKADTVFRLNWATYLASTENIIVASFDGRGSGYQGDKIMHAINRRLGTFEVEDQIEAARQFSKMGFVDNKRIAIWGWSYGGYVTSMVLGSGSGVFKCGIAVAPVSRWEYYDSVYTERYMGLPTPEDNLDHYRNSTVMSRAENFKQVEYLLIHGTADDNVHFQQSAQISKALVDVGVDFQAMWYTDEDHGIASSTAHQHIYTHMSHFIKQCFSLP

B1: MERS-CoV RBD (E367 to Y606) (domain or fragment)
chain: EAKPSGSVVEQAEGVECDFSPLLSGTPPQVYNFKRLVFTNCNYNLTKLLSLFSVNDFTCSQISPAAIASNCYSSLILDYFSYPLSMKSDLSVSSAGPISQFNYKQSFSNPTCLILATVPHNLTTITKPLKYSYINKCSRFLSDDRTEVPQLVNANQYSPCVSIVPSTVWEDGDYYRKQLSPLEGGGWLVASGSTVAMTEQLQMGFGITVQYGTDTNSVCPKLEFANDTKIASQLGNCVEY
Question: Does B1 bind?
Answer: binds
